In the supplement of paper PMC9112550, “Optimization of the antimicrobial peptide Bac7 by deep mutational scanning” (BMC Biology, 2022):

What follows are sequences tested on Escherichia coli TOP10 (assay: shrunken log2 fold change of peptide-encoding DNA abundance (4.5 h post-induction vs induction); higher = less antimicrobial activity (less host growth inhibition)). Details: time post-induction: 4.5 h; library: site-saturation at positions 5, 18, 19, 20.
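Further: peptides expressed intracellularly from a pBAD plasmid library in pooled LB shake-flask culture, induced with 0.3% L-arabinose, DNA abundance read by NGS, three biological replicates, DESeq2 with apeglm shrinkage.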

Sequence	shrunken log2 fold change
RRIRMRPPRLPRPRPRPAKKPRP	0.209
RRIRRRPPRLPRPRPRPNWYPRP	-0.197
RRIRRRPPRLPRPRPRPGSQPRP	-0.0144
RRIRLRPPRLPRPRPRPTLQPRP	0.0553
RRIRARPPRLPRPRPRPFVGPRP	-0.0485
RRIRSRPPRLPRPRPRPRAPPRP	0.716
RRIRLRPPRLPRPRPRPYVRPRP	0.0394
RRIRTRPPRLPRPRPRPIHFPRP	-0.00174
RRIRGRPPRLPRPRPRPYGWPRP	-0.0363
RRIRFRPPRLPRPRPRPLQSPRP	0.11
RRIRYRPPRLPRPRPRPQNIPRP	-1.24
RRIRIRPPRLPRPRPRPSWDPRP	-0.462
RRIRNRPPRLPRPRPRPYCCPRP	-0.564
RRIRIRPPRLPRPRPRPYMEPRP	-0.677
RRIRVRPPRLPRPRPRPDLDPRP	0.156
RRIRRRPPRLPRPRPRPTEEPRP	1.07
RRIRFRPPRLPRPRPRPAPVPRP	0.323
RRIRWRPPRLPRPRPRPDTTPRP	0.255
RRIRERPPRLPRPRPRPATVPRP	-0.2
RRIRFRPPRLPRPRPRPWVVPRP	0.0143
RRIRNRPPRLPRPRPRPCQTPRP	-0.0964
RRIRERPPRLPRPRPRPKNTPRP	-0.439
RRIRNRPPRLPRPRPRPLSNPRP	-0.386
RRIRSRPPRLPRPRPRPSCHPRP	-0.245
RRIRIRPPRLPRPRPRPKIYPRP	-0.581

Sequence	shrunken log2 fold change
RRIRIRPPRLPRPRPRPKCWPRP	0.139
RRIRSRPPRLPRPRPRPEDDPRP	0.744
RRIRDRPPRLPRPRPRPNRNPRP	-0.227
RRIRYRPPRLPRPRPRPNTEPRP	-0.0461
RRIRWRPPRLPRPRPRPSWWPRP	0.2
RRIRDRPPRLPRPRPRPDVPPRP	0.221
RRIRARPPRLPRPRPRPTVFPRP	0.0832
RRIRARPPRLPRPRPRPHGRPRP	0.0226
RRIRHRPPRLPRPRPRPHVTPRP	-0.373
RRIRWRPPRLPRPRPRPQLGPRP	0.276
RRIRDRPPRLPRPRPRPYYRPRP	-0.163
RRIRQRPPRLPRPRPRPIDRPRP	0.118
RRIRKRPPRLPRPRPRPCYPPRP	-0.446
RRIRIRPPRLPRPRPRPFEAPRP	-0.151
RRIRWRPPRLPRPRPRPGQGPRP	0.522
RRIRLRPPRLPRPRPRPDWPPRP	-0.0804
RRIRTRPPRLPRPRPRPCIGPRP	-0.0176
RRIRYRPPRLPRPRPRPSGMPRP	-0.0611
RRIRERPPRLPRPRPRPGEMPRP	-0.0373
RRIRDRPPRLPRPRPRPTDEPRP	0.0606
RRIRFRPPRLPRPRPRPYATPRP	-0.419
RRIRARPPRLPRPRPRPMIQPRP	0.0771
RRIRIRPPRLPRPRPRPIHFPRP	-0.0704
RRIRFRPPRLPRPRPRPQLSPRP	-0.0854
RRIRTRPPRLPRPRPRPPPRPRP	1.36

Sequence	shrunken log2 fold change
RRIRNRPPRLPRPRPRPNQPPRP	-0.055
RRIRERPPRLPRPRPRPWIIPRP	-0.269
RRIRWRPPRLPRPRPRPIPVPRP	-0.11
RRIRNRPPRLPRPRPRPGSHPRP	-0.291
RRIRVRPPRLPRPRPRPNQCPRP	-0.264
RRIRYRPPRLPRPRPRPDGKPRP	-0.01
RRIRDRPPRLPRPRPRPAYEPRP	-0.0214
RRIRVRPPRLPRPRPRPACFPRP	0.169
RRIRERPPRLPRPRPRPQWGPRP	-0.252
RRIRWRPPRLPRPRPRPCDMPRP	-0.173
RRIRIRPPRLPRPRPRPFMWPRP	-0.792
RRIRMRPPRLPRPRPRPQTWPRP	0.39
RRIRTRPPRLPRPRPRPQPHPRP	-0.0402
RRIRERPPRLPRPRPRPAGMPRP	-0.0133
RRIRHRPPRLPRPRPRPQHWPRP	-0.00395
RRIRSRPPRLPRPRPRPSMMPRP	-0.105
RRIRGRPPRLPRPRPRPQSTPRP	0.649
RRIRFRPPRLPRPRPRPQFTPRP	-0.362
RRIRARPPRLPRPRPRPYEYPRP	-0.04
RRIRMRPPRLPRPRPRPFCSPRP	0.0534
RRIRERPPRLPRPRPRPNYGPRP	-0.0315
RRIRIRPPRLPRPRPRPKSEPRP	-0.329
RRIRCRPPRLPRPRPRPMWFPRP	-0.254
RRIRSRPPRLPRPRPRPPFLPRP	-0.0588
RRIRNRPPRLPRPRPRPWSGPRP	-0.173

Sequence	shrunken log2 fold change
RRIRKRPPRLPRPRPRPFSRPRP	0.238
RRIRERPPRLPRPRPRPDIWPRP	-0.0258
RRIRERPPRLPRPRPRPMFNPRP	-0.607
RRIRCRPPRLPRPRPRPSIQPRP	-0.655
RRIRCRPPRLPRPRPRPPCRPRP	0.609
RRIRVRPPRLPRPRPRPLTQPRP	0.149
RRIRCRPPRLPRPRPRPQRKPRP	0.203
RRIRSRPPRLPRPRPRPLASPRP	0.0667
RRIRVRPPRLPRPRPRPVFKPRP	-0.196
RRIRSRPPRLPRPRPRPSQGPRP	-0.252
RRIRMRPPRLPRPRPRPTYSPRP	0.0196
RRIRQRPPRLPRPRPRPICEPRP	0.0925
RRIRMRPPRLPRPRPRPPCFPRP	0.257
RRIRLRPPRLPRPRPRPFERPRP	0.198
RRIRTRPPRLPRPRPRPFGCPRP	-0.0582
RRIRVRPPRLPRPRPRPNFDPRP	-0.0598
RRIRTRPPRLPRPRPRPYTHPRP	-0.338
RRIRERPPRLPRPRPRPIIFPRP	-0.352
RRIRMRPPRLPRPRPRPNIPPRP	-0.207
RRIRFRPPRLPRPRPRPSYQPRP	-0.451
RRIRTRPPRLPRPRPRPNMFPRP	-0.315
RRIRARPPRLPRPRPRPQRSPRP	0.17
RRIRRRPPRLPRPRPRPGWRPRP	0.425
RRIRSRPPRLPRPRPRPKDAPRP	0.22
RRIRDRPPRLPRPRPRPHSSPRP	0.217

Sequence	shrunken log2 fold change
RRIRERPPRLPRPRPRPMCHPRP	0.0346
RRIRARPPRLPRPRPRPWAQPRP	0.0167
RRIRWRPPRLPRPRPRPTFNPRP	0.00157
RRIRSRPPRLPRPRPRPRIDPRP	0.0938
RRIRTRPPRLPRPRPRPVRSPRP	0.641
RRIRERPPRLPRPRPRPECKPRP	-0.132
RRIRDRPPRLPRPRPRPYRCPRP	-0.0315
RRIRSRPPRLPRPRPRPRRDPRP	0.297
RRIRMRPPRLPRPRPRPNTDPRP	-0.196
RRIRTRPPRLPRPRPRPTQGPRP	0.358
RRIRDRPPRLPRPRPRPFTCPRP	-0.00884
RRIRGRPPRLPRPRPRPYCVPRP	-0.237
RRIRKRPPRLPRPRPRPQSFPRP	0.327
RRIRLRPPRLPRPRPRPDSPPRP	-0.119
RRIRDRPPRLPRPRPRPCKEPRP	0.00884
RRIRTRPPRLPRPRPRPQANPRP	-0.156
RRIRHRPPRLPRPRPRPICLPRP	-0.225
RRIRNRPPRLPRPRPRPSCLPRP	-0.4
RRIRTRPPRLPRPRPRPFAIPRP	0.061
RRIRFRPPRLPRPRPRPKQAPRP	-0.0316
RRIRGRPPRLPRPRPRPNMEPRP	0.22
RRIRPRPPRLPRPRPRPAIMPRP	-0.00756
RRIRFRPPRLPRPRPRPQIYPRP	-1.01
RRIRHRPPRLPRPRPRPHETPRP	0.0369
RRIRDRPPRLPRPRPRPYSYPRP	-0.0279
